According to paper doi:10.1101/2023.11.26.568713v1:

Legend:
[1] = substrate: O=CC(=O)O; test: purified protein, by the assay type; conditions: pH 7.6; 30.0 °C
[2] = substrate: O=CC(=O)O; test: purified protein, by the assay type; conditions: pH 7.6; 30.0 °C; remark: listed apart in the source

Protein	Km [1]	Km [2]
GGT1 (Arabidopsis thaliana) (protein) MALKALDYDTLNENVKKCQYAVRGELYLRASELQKEGKKIIFTNVGNPHALGQKPLTFPRQVVALCQAPFLLDDPNVGMLFPADAIARAKHYLSLTSGGLGAYSDSRGLPGVRKEVAEFIQRRDGYPSDPELIFLTDGASKGVMQILNCVIRGNGDGILVPVPQYPLYSATISLLGGTLVPYYLDESENWGLDVANLRQSVAQARSQGITVRAMVIINPGNPTGQCLSEANIREILKFCYNEKLVLLGDEVYQQNIYQDERPFISSKKVLMEMGSPFSKEVQLVSFHTVSKGYWGECGQRGGYFEMTNLPPRVVEEIYKVASIALSPNVSAQIFMGLMVNPPKPGDISYDQFARESKGILESLRRRARLMTDGFNSCKNVVCNFTEGAMYSFPQIRLPTGALQAAKQAGKVPDVFYCLKLLEATGISTVPGSGFGQKEGVFHLRTTILPAEDEMPEIMDSFKKFNDEFMTQYDNNFGYSKM	330 ± 30 µM	–
BhcA (Paracoccus denitrificans PD1222) (protein) MTSQNPIFIPGPTNIPEEMRKAVDMPTIDHRSPVFGRMLHPALEGVKKVLKTTQAQVFLFPSTGTGGWETAITNTLSPGDKVLAARNGMFSHRWIDMCQRHGLDVTFVETPWGEGVPADRFEEILTADKGHEIRVVLATHNETATGVKSDIAAVRRALDAAKHPALLFVDGVSSIGSMDFRMDEWGVDIAVTGSQKGFMLPPGLAIVGFSPKAMEAVETARLPRTFFDIRDMATGYARNGYPYTPPVGLINGLNASCERILAEGLENVFARHHRIASGVRAAVDAWGLKLCAVRPELYSDSVSAIRVPEGFDANLIVSHALETYDMAFGTGLGQVAGKVFRIGHLGSLTDAMALSGIATAEMVMADLGLPIQLGSGVAAAQEHYRQTTAAAQKKAA	140 ± 20 µM	190 ± 20 µM
